The data set in a line: self-splicing fitness, log relative to wild type (ln ratio); higher = more splicing; Tetrahymena group I intron in knt gene, E. coli kanamycin selection, DiMSum; sequences stand for … in CUCUCU…GGAGGGAAAAGUUAUCAGGCAUGCACCUGGUAGCUAGUCUUUAAACCAAUAGAUUGCAUCGGUUUAAAAGGCAAGACCGUCAAAUUGCGGGAAAGGGGUCAACAGCCGUUCAGUACCAAGUCUCAGGGGAAACUUUGAGAUGGCCUUGCAAAGGGUAUGGUAAUAAGCUGACGGACAUGGUCCUAACCACGCAGCCAAGUCCUAAGUCAACAGAUCUUCUGUUGAUAUGGAUGCAGUUCACAGACUAAAUGUCGGUCGGGGAAGAUGUAUUCUUCUCAUAAGAUAUAGUCGGACCUCUCCUUAAUGGGAGCUAGCGGAUGAAGUGAUGCAACACUGGAGCCGCUGGGAACUAAUUUGUAUGCGAAAGUAUAUUGAUUAGUUUUGGAGUACUCGUGGUCG
Summed up: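 Colonies from six replicate transformations of E. coli BL21(DE3) were pooled and amplicon-sequenced on an Illumina HiSeq 2500. The library placed an intron with all eight P1ex-region nucleotides randomised inside the knt kanamycin-resistance gene on pET-22b(+), and cells grew overnight at 37°C or 30°C on LB agar with or without 25 μg/mL kanamycin (plus 100 μg/mL carbenicillin, 50 μM IPTG, 0.2% rhamnose). Fitness is the DiMSum error-weighted combination of wild-type-normalised replicate fold changes, kanamycin versus none.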

± gives the uncertainty stated by the source.

This is an account of results in the supplement of paper PMC7877785.

As to UCGGAGCAAUAUUACGAUCA, under “37 °C”, the “self-splicing fitness (ln)” value was -1.23 ± 0.48.

Turning to GUAUAGCAAUAUUACGUAUA, the “self-splicing fitness (ln)” value (30 °C) is -3.48 ± 0.41 and the “self-splicing fitness (ln)” value (37 °C) was -1.8 ± 0.25.

As for UUCAAGCAAUAUUACGCGCG, the “self-splicing fitness (ln)” value (30 °C) was -1.39 ± 0.082 and the “self-splicing fitness (ln)” value (37 °C) is -0.634 ± 0.13.

GUCUAGCAAUAUUACGACGA: the “self-splicing fitness (ln)” value runs as follows: (30 °C) -1.86 ± 0.18; (37 °C) -0.293 ± 0.16.

Regarding CGAAAGCAAUAUUACGGGUC, the “self-splicing fitness (ln)” value (30 °C) was -4 ± 0.3 and the “self-splicing fitness (ln)” value (37 °C) was -3.76 ± 0.34.

With AGCUAGCAAUAUUACGCAGA, the “self-splicing fitness (ln)” value was -3.4 ± 0.34 (30 °C) and -1.82 ± 0.18 (37 °C).

With GUUUAGCAAUAUUACGUAAA, the “self-splicing fitness (ln)” value (30 °C) was -2.64 ± 0.18 and the “self-splicing fitness (ln)” value (37 °C) was -0.672 ± 0.18.

Consider CCCGAGCAAUAUUACGGAUU, for which the “self-splicing fitness (ln)” value is, setting by setting: (30 °C) -4.16 ± 0.18; (37 °C) -2.55 ± 0.17.

For the sequence GGGUAGCAAUAUUACGACCG, the “self-splicing fitness (ln)” value is -1.03 ± 0.18 (30 °C) and -0.642 ± 0.33 (37 °C).

Regarding AAUCAGCAAUAUUACGCAUC, the “self-splicing fitness (ln)” value runs as follows: (30 °C) -0.287 ± 0.082; (37 °C) 0.0734 ± 0.094.

For UCGCAGCAAUAUUACGUCUC, the “self-splicing fitness (ln)” value (37 °C) was -1.97 ± 0.27.

For CCAGAGCAAUAUUACGCAGA, the “self-splicing fitness (ln)” value is, setting by setting: (30 °C) -2.8 ± 0.19; (37 °C) -2.84 ± 0.44.

Consider GGCGAGCAAUAUUACGGCCG, for which the “self-splicing fitness (ln)” value was -2.11 ± 0.16 (30 °C) and -0.882 ± 0.2 (37 °C).

In the case of UGGCAGCAAUAUUACGAGCC, the “self-splicing fitness (ln)” value by setting is: (30 °C) -2.1 ± 0.29; (37 °C) -2.37 ± 0.44.

On to UUAGAGCAAUAUUACGUUUG, for which the “self-splicing fitness (ln)” value (30 °C) is -2.04 ± 0.11 and the “self-splicing fitness (ln)” value (37 °C) was -1.05 ± 0.14.

In the case of UUAAAGCAAUAUUACGGUGC, the “self-splicing fitness (ln)” value (30 °C) is -4.36 ± 0.42 and the “self-splicing fitness (ln)” value (37 °C) is -2.14 ± 0.34.

For the sequence CACGAGCAAUAUUACGGUCA, the “self-splicing fitness (ln)” value is, setting by setting: (30 °C) -4.22 ± 0.39; (37 °C) -1.54 ± 0.16.

On to AUACAGCAAUAUUACGACUC, for which the “self-splicing fitness (ln)” value is -0.976 ± 0.086 (30 °C) and 0.311 ± 0.11 (37 °C).

Turning to CCGCAGCAAUAUUACGCAUG, the “self-splicing fitness (ln)” value (30 °C) was -2.91 ± 0.1 and the “self-splicing fitness (ln)” value (37 °C) is -0.661 ± 0.076.

For CGAGAGCAAUAUUACGCCUC, the “self-splicing fitness (ln)” value is -4.16 ± 0.39 (30 °C) and -1.27 ± 0.18 (37 °C).

As for AACUAGCAAUAUUACGGGGG, the “self-splicing fitness (ln)” value is, setting by setting: (30 °C) -2.73 ± 0.2; (37 °C) -1.53 ± 0.22.

CCGCAGCAAUAUUACGGAGC: the “self-splicing fitness (ln)” value was -3.52 ± 0.14 (30 °C) and -2.48 ± 0.18 (37 °C).

Take AAGAAGCAAUAUUACGGAUG: the “self-splicing fitness (ln)” value is, setting by setting: (30 °C) -1.8 ± 0.076; (37 °C) -2.03 ± 0.12.

Turning to AUCAAGCAAUAUUACGGUGG, the “self-splicing fitness (ln)” value reads like this: (30 °C) -3.54 ± 0.19; (37 °C) -2.63 ± 0.2.

As for GCGAAGCAAUAUUACGGCGU, the “self-splicing fitness (ln)” value is -2.68 ± 0.37 (30 °C) and -0.799 ± 0.46 (37 °C).

AUGUAGCAAUAUUACGUGUU: the “self-splicing fitness (ln)” value by setting is: (30 °C) -2.4 ± 0.12; (37 °C) -1.08 ± 0.14.

Regarding UUCUAGCAAUAUUACGCUUC, the “self-splicing fitness (ln)” value reads like this: (30 °C) -2.8 ± 0.32; (37 °C) -1.96 ± 0.22.

As to CGCCAGCAAUAUUACGGCAU, the “self-splicing fitness (ln)” value by setting is: (30 °C) -1.25 ± 0.081; (37 °C) -0.458 ± 0.088.

Regarding AUACAGCAAUAUUACGAAGG, the “self-splicing fitness (ln)” value by setting is: (30 °C) -3.3 ± 0.24; (37 °C) -2.87 ± 0.28.

AAAGAGCAAUAUUACGUGUA: the “self-splicing fitness (ln)” value (30 °C) was -3.3 ± 0.16 and the “self-splicing fitness (ln)” value (37 °C) was -2.27 ± 0.22.

Turning to AAACAGCAAUAUUACGCCAU, the “self-splicing fitness (ln)” value reads like this: (30 °C) -3.26 ± 0.17; (37 °C) -2.42 ± 0.18.

Regarding UACAAGCAAUAUUACGUAGC, the “self-splicing fitness (ln)” value runs as follows: (30 °C) -3.5 ± 0.18; (37 °C) -2.09 ± 0.2.

For AACCAGCAAUAUUACGGUUC, the “self-splicing fitness (ln)” value reads like this: (30 °C) -3.75 ± 0.14; (37 °C) -2.43 ± 0.17.

As for GUUGAGCAAUAUUACGAUAG, under “37 °C”, the “self-splicing fitness (ln)” value was -3.04 ± 0.31.

Take CGGUAGCAAUAUUACGACUU: the “self-splicing fitness (ln)” value was -0.479 ± 0.094 (30 °C) and 0.365 ± 0.11 (37 °C).

For the sequence UCUCAGCAAUAUUACGAAUC, the “self-splicing fitness (ln)” value reads like this: (30 °C) -3.99 ± 0.39; (37 °C) -2.58 ± 0.22.

In the case of CUUAAGCAAUAUUACGCCCA, the “self-splicing fitness (ln)” value is -2.46 ± 0.32 (30 °C) and -1.69 ± 0.48 (37 °C).

Consider CAAAAGCAAUAUUACGACGC, for which the “self-splicing fitness (ln)” value (30 °C) was -0.886 ± 0.092 and the “self-splicing fitness (ln)” value (37 °C) was -1.14 ± 0.14.
